Test results: publication PMC5912696

Biological target: Q394X truncation of the ER-tethered Ste6 NBD2 chimera (yeast)
Assay: co-IP

Hsp104 (from UniProt P31539 1-908) (natural protein)
fold above background: 2 fold
